Data reported in IntAct's records for PubMed 23942232.

B1: TNF receptor-associated factor 6 (Mus musculus), P70196 (parent)
chain: MSLLNCENSCGSSQSSSDCCAAMAASCSAAVKDDSVSGSASTGNLSSSFMEEIQGYDVEFDPPLESKYECPICLMALREAVQTPCGHRFCKACIIKSIRDAGHKCPVDNEILLENQLFPDNFAKREILSLTVKCPNKGCLQKMELRHLEDHQVHCEFALVNCPQCQRPFQKCQVNTHIIEDCPRRQVSCVNCAVSMAYEEKEIHDQSCPLANIICEYCGTILIREQMPNHYDLDCPTAPIPCTFSVFGCHEKMQRNHLARHLQENTQLHMRLLAQAVHNVNLALRPCDAASPSRGCRPEDPNYEETIKQLESRLVRQDHQIRELTAKMETQSMYVGELKRTIRTLEDKVAEMEAQQCNGIYIWKIGNFGMHLKSQEEERPVVIHSPGFYTGRPGYKLCMRLHLQLPTAQRCANYISLFVHTMQGEYDSHLPWPFQGTIRLTILDQSEALIRQNHEEVMDAKPELLAFQRPTIPRNPKGFGYVTFMHLEALRQGTFIKDDTLLVRCEVSTRFDMGGLRKEGFQPRSTDAGV

Variants of: B1
Details: with ern1_mouse Ern1, Q9EQY0
Sequence of ern1_mouse Ern1, Q9EQY0 (Q9EQY0 whole entry): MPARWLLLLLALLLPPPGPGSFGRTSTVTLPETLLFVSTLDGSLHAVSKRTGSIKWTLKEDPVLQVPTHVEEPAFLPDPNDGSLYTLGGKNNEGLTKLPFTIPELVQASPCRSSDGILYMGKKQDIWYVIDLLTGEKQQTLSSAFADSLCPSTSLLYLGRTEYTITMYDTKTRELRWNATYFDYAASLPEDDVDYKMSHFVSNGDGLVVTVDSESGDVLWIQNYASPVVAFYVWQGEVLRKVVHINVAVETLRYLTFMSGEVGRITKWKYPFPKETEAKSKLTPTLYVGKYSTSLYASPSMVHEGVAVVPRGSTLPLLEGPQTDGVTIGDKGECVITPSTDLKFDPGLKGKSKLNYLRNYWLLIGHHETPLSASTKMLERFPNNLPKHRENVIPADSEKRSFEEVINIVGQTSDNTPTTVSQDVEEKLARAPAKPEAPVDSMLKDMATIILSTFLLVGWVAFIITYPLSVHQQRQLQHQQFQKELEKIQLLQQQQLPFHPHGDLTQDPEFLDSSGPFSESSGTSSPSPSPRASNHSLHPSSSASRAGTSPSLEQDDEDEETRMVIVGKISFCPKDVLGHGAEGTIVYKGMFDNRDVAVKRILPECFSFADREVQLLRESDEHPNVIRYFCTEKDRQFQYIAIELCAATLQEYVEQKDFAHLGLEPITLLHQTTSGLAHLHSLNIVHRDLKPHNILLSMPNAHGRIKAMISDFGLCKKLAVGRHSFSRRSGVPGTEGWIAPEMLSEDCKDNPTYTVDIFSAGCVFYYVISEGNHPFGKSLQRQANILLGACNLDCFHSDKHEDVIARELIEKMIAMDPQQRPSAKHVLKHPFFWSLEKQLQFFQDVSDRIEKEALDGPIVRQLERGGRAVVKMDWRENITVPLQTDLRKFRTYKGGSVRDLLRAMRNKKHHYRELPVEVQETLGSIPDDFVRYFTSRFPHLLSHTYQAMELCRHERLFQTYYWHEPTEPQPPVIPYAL

Variant | effect of a mutation on the interaction
C70A | increasing interaction
